T1: hu-CD200R1-iso4-Ref ECD (human)
T1 chain: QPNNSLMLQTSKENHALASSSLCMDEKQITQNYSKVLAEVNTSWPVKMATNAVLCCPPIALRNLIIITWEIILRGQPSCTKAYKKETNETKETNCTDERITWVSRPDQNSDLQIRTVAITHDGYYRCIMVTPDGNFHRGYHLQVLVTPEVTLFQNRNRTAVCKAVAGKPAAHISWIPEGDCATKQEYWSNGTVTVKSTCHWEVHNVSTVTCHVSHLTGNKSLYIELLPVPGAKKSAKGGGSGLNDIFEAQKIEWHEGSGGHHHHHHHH

T2: hu-CD200R1-iso4-Alt ECD (human)
T2 construct: also called isoform 4 alt
T2 chain: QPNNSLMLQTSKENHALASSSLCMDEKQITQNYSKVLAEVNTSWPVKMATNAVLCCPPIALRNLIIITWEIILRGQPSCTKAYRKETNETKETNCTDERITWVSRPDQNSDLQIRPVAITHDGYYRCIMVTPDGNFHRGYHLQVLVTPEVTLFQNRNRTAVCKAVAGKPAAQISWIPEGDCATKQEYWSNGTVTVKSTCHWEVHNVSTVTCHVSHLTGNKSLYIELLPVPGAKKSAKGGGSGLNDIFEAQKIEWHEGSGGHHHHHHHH

T3: hu-CD200R1-iso1-Alt ECD (human)
T3 chain: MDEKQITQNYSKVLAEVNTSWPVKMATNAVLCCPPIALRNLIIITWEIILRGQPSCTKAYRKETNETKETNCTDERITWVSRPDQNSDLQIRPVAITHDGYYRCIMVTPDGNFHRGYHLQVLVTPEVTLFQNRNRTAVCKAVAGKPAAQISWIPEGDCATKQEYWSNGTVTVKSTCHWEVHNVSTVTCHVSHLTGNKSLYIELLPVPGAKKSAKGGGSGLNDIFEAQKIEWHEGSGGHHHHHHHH

T4: hu-CD200R1-iso1-Ref ECD (human)
T4 chain: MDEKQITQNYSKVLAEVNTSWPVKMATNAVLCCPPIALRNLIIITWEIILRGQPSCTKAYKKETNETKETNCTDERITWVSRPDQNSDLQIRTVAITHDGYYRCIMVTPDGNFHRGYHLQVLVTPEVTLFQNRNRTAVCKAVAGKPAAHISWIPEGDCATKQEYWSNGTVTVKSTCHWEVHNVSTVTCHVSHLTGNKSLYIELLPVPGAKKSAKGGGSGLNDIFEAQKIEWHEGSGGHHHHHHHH

B1: cyno-CD200R1 ECD (receptor)
chain: AAQSNNSLMLQTSKENHTLASNSLCMDEKQITQNHSKVLAEVNISWPVQMARNAVLCCPPIEFRNLIVITWEIILRGQPSCTKTYRKDTNETKETNCTDERITWVSTPDQNSDLQIHPVAITHDGYYRCIMATPDGNFHRGYHLQVLVTPEVTLFESRNRTAVCKAVAGKPAAQISWIPAGDCAPTEQEYWGNGTVTVKSTCHWEGHNVSTVTCHVSHLTGNKSLYIELLPVPGAKKSAKLGGGSGLNDIFEAQKIEWHEGSGGHHHHHHHH
notes: also called cynomolgus monkey CD200R1; MfCD200R1 (recombinant)

Tests used:
hu-CD200R1-iso4-Ref ECD [1] = target: T1, hu-CD200R1-iso4-Ref ECD; test: SPR Biacore 8K 37C; antibody on Protein A chip, CD200R1 analyte;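 further: sensorgrams corrected by subtracting reference and buffer signals, then analysed with Biacore 8K Evaluation Software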
Description: (§1) The sensorgram was recorded and subject to reference and buffer subtraction before evaluation by BIACORE®8K Evaluation Software (version 1.1.1.7442). Association rates (kₒ₀) and dissociation rates (koff) were calculated using a simple one-to-one Langmuir binding model.

cyno-CD200R1 ECD [2] = target: B1; test: as above
Description: as §1

hu-CD200R1-iso4-Alt ECD [3] = target: T2, hu-CD200R1-iso4-Alt ECD; test: as above
Description: as §1

cyno-CD200R1 ECD [4] = target: B1; test: blocking ELISA; biotin-cyno-CD200R1 + antibody dilutions on coated cyno-CD200-Fc
cyno-CD200R1 ECD [5] = target: B1; test: blocking ELISA, MfCD200R1 to immobilized MfCD200
Description: (§2) Binding was evaluated by incubating with HRP-streptavidin and colorimetric substrate, followed by monitoring the OD450 in each well.

cyno-CD200R1 ECD [6] = target: B1; test: SPR binding affinity to recombinant MfCD200R1
hu-CD200R1-iso4-Ref ECD [7] = target: T1, hu-CD200R1-iso4-Ref ECD; test: blocking ELISA; biotin-hu-CD200R1 + antibody dilutions on coated hu-CD200-Fc
Description: (§3) After removing the coating solution, unspecific binding was blocked with PBS containing 1% bovine serum albumin (BSA) and incubation at room temperature for one hour. Plates were then washed five times in PBS with 0.05% TWEEN®-20 (wash buffer).

cyno-CD200R1 ECD [8] = target: B1; test: Biacore, binding to MfCD200R1
hu-CD200R1-iso4-Ref ECD [9] = target: T1, hu-CD200R1-iso4-Ref ECD; test: SPR Biacore 8K 37C; biotin-CD200R1 captured, antibody analyte
Description: (§4) For kinetics measurements, 3 nM biotinylated human CD200R1. […] The sensorgram was recorded and subject to reference and buffer subtraction before evaluating by BIACORE® 8K Evaluation Software (version 1.1.1.7442).
(§5) Association rates (kₒₙ) and dissociation rates (koff) were calculated using a simple one-to-one Langmuir binding model. The equilibrium dissociation constant (KD) was calculated as the ratio of koff/kₒₙ.

hu-CD200R1-iso4-Alt ECD [10] = target: T2, hu-CD200R1-iso4-Alt ECD; test: as above
Description: as §4, §5

hu-CD200R1-iso1-Alt ECD [11] = target: T3, hu-CD200R1-iso1-Alt ECD; test: as above
Description: as §4, §5

hu-CD200R1-iso1-Ref ECD [12] = target: T4, hu-CD200R1-iso1-Ref ECD; test: as above
Description: as §4, §5

hu-CD200R1-iso4-Ref ECD [13] = target: T1, hu-CD200R1-iso4-Ref ECD; test: blocking ELISA; biotin-CD200R1 + antibody dilutions on coated hu-CD200-Fc
Description: as §3

hu-CD200R1-iso4-Alt ECD [14] = target: T2, hu-CD200R1-iso4-Alt ECD; test: as above
Description: as §3

hu-CD200R1-iso1-Alt ECD [15] = target: T3, hu-CD200R1-iso1-Alt ECD; test: as above
Description: as §3

hu-CD200R1-iso1-Ref ECD [16] = target: T4, hu-CD200R1-iso1-Ref ECD; test: as above
Description: as §3

cyno-CD200-Fc = target: T5, cyno-CD200-Fc (cynomolgus monkey); test: ELISA: biotinylated MfCD200R1 (0.12 ug/ml) on plate-immobilised Fc-tagged MfCD200, HRP-streptavidin, OD450
T5 construct: also called MfCD200-Fc; Fc-tagged MfCD200
T5 sequence (chain, as listed by the source limits assumed): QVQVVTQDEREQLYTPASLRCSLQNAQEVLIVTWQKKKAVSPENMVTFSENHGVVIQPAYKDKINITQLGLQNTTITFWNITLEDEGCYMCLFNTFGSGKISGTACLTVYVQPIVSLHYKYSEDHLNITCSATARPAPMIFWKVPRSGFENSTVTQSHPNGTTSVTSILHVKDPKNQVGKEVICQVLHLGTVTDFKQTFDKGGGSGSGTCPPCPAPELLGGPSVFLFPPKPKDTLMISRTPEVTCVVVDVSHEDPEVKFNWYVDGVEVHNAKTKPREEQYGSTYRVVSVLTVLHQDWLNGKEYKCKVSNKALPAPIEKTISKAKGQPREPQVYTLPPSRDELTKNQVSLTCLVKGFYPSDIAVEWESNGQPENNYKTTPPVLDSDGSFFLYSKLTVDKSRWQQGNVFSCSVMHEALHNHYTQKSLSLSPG
Description: as §2

Row | Kd (hu-CD200R1-iso4-Ref ECD [1]) [nM] | koff (hu-CD200R1-iso4-Ref ECD [1]) [s⁻¹] | kon (hu-CD200R1-iso4-Ref ECD [1]) [M⁻¹ s⁻¹] | Kd (cyno-CD200R1 ECD [2]) [nM] | koff (cyno-CD200R1 ECD [2]) [s⁻¹] | kon (cyno-CD200R1 ECD [2]) [M⁻¹ s⁻¹] | IC50 (cyno-CD200R1 ECD [4]) [nM] | IC50 (hu-CD200R1-iso4-Ref ECD [7]) [nM] | Binder | Kd (hu-CD200R1-iso4-Alt ECD [3]) [nM] | koff (hu-CD200R1-iso4-Alt ECD [3]) [s⁻¹] | kon (hu-CD200R1-iso4-Alt ECD [3]) [M⁻¹ s⁻¹] | other results
1 | 0.716 | 0.000964 | 1.35e+06 | 10.5 | 0.00457 | 436000 | 2.44 | 0.58 | h10F6.V1 (antibody, IgG1, V domains shown, differs by 3 residues in the heavy chain CDRs and 1 in the light chain CDRs; also called surrogate antibody) VH: EVQLQESGPGLVKPSETLSLTCTVSGFSLTNYRVSWVRQPPGKGLEWLGVMYAGGGTNYNSVFKSRLTISKDNSKNQVSLKLSSVTAADTAVYYCARERPLTGVMDNWGQGTLVTVSS VL: DIVLTQSPDSLAVSLGERATINCRASESVDYSGNSFMHWFQQKPGQPPKLLIYRASNLESGIPDRFSGSGSRTDFTLTISSLQAEDVAVYYCHQSNWDPPTFGGGTKVEIKR | 0.814 | 0.00117 | 1.44e+06 | IC50 (cyno-CD200R1 ECD [5]): 2.45 nM; Kd (cyno-CD200R1 ECD [6]): 2.63 nM; Kd (cyno-CD200R1 ECD [8]): 2.63 nM
2 | 0.817 | 0.00153 | 1.88e+06 | 60.7 | 0.0195 | 322000 | 11.4 | 0.56 | h10F6.V3 (antibody, IgG1, V domains shown, IgG1 variant of h10F6) VH: EVQLQESGPGLVKPSETLSLTCTVSGFSLTNYRVSWVRQPPGKGLEWLGVMYAGGGTNYNSVFKSRLTISKDNSKNQVSLKLSSVTAADTAVYYCARERPLTGVMDNWGQGTLVTVSS VL: DIVLTQSPDSLAVSLGERATINCRASESVDYSGNSFMHWFQQKPGQPPKLLIYRASNLESGIPDRFSGSGSRTDFTLTISSLQAEDVAVYYCHQSNEDPPTFGGGTKVEIKR | 0.935 | 0.00191 | 2.04e+06 | 
3 | 8.93 | 0.00336 | 377000 | 5.87 | 0.00113 | 193000 | 2.15 | 10.9 | h10F6.V4 (antibody, IgG1, V domains shown, IgG1 variant of h10F6) VH: EVQLQESGPGLVKPSETLSLTCTVSGFSLTNYWVSWVRQPPGKGLEWLGTMWAGGGTNYNSVFKSRLTISKDNSKNQVSLKLSSVTAADTAVYYCARERPLTGPMDYWGQGTLVTVSS VL: DIVLTQSPDSLAVSLGERATINCRASESVDYSGNSFMHWFQQKPGQPPKLLIYRASNLESGIPDRFSGSGSRTDFTLTISSLQAEDVAVYYCHQSNWDPPTFGGGTKVEIKR | 9.99 | 0.00387 | 388000 | 
4 | 6.04 | 0.00367 | 607000 | 16.3 | 0.00351 | 216000 | 4.25 | 4.79 | h10F6.V2 (antibody, IgG1, V domains shown, IgG1 variant of h10F6) VH: EVQLQESGPGLVKPSETLSLTCTVSGFSLTNYWVSWVRQPPGKGLEWLGTMWAGGGTNYNSVFKSRLTISKDNSKNQVSLKLSSVTAADTAVYYCARERPLTGPMDYWGQGTLVTVSS VL: DIVLTQSPDSLAVSLGERATINCRASESVDYSGNSFMHWFQQKPGQPPKLLIYRASNLESGIPDRFSGSGSRTDFTLTISSLQAEDVAVYYCHQSNEDPPTFGGGTKVEIKR | 6.68 | 0.00425 | 635000 | 
5 |  |  |  |  |  |  |  |  | h22.1 (humanized 22.1 IgG) (antibody, V domains shown) VH: EVQLVQSGAEVKKPGASVKVSCKASGYTFTSYVMFWVRQAPGQRLEWIGYINPYNDDTKYNEKFKGRATLTSDKSASTAYMELSSLRSEDTAVYYCAREDYYGSRFVYWGQGTLVTVSS VL: DIQLTQSPSSLSASVGDRVTITCRASKSVSTSGYSYMHWYQQKPGKPPKLLIYLASNLESGVPSRFSGSGSGTDFTLTISSLQPEDFATYYCQHNRELLTFGGGTKVEIKR |  |  |  | Kd (hu-CD200R1-iso4-Ref ECD [9]): 1.92 nM; koff (hu-CD200R1-iso4-Ref ECD [9]): 0.00115 s⁻¹; kon (hu-CD200R1-iso4-Ref ECD [9]): 598000 M⁻¹ s⁻¹; Kd (hu-CD200R1-iso4-Alt ECD [10]): 1.92 nM; koff (hu-CD200R1-iso4-Alt ECD [10]): 0.00116 s⁻¹; kon (hu-CD200R1-iso4-Alt ECD [10]): 604000 M⁻¹ s⁻¹; Kd (hu-CD200R1-iso1-Alt ECD [11]): 0.535 nM; koff (hu-CD200R1-iso1-Alt ECD [11]): 0.00166 s⁻¹; kon (hu-CD200R1-iso1-Alt ECD [11]): 3.11e+06 M⁻¹ s⁻¹; Kd (hu-CD200R1-iso1-Ref ECD [12]): 0.501 nM; koff (hu-CD200R1-iso1-Ref ECD [12]): 0.00151 s⁻¹; kon (hu-CD200R1-iso1-Ref ECD [12]): 3.02e+06 M⁻¹ s⁻¹; IC50 (hu-CD200R1-iso4-Ref ECD [13]): 5.32 nM; IC50 (hu-CD200R1-iso4-Alt ECD [14]): 4.59 nM; IC50 (hu-CD200R1-iso1-Alt ECD [15]): 7.45 nM; IC50 (hu-CD200R1-iso1-Ref ECD [16]): 5.86 nM
6 |  |  |  |  |  |  |  |  | B1 |  |  |  | binding result (cyno-CD200-Fc): binds

Reference: patent publication US20260022171A1 (23ANDME, published 2026)
